Experimental data as given in publication PMC12985673, “Weaker neuroligin 2–neurexin β1 interaction tethers membranes and recruits gephyrin at membrane junctions through clustering” (Science Advances, 2026).

Target: the molecule itself
Assay: cryo-EM structure; full-length NL2 alone; 20 mM Hepes-Na pH 7.5, 150 mM NaCl, 1 mM MgCl2, 0.5 mM CaCl2, 0.06% digitonin, brain polar lipid extract; only the ECD resolved

B1: full-length neuroligin 2 (NL2), mouse, without the splice insert at site A (receptor, UniProt Q69ZK9 15-836, looked up)
chain: QRGGGGPGGGAPGGPGLGLGSLGEERFPVVNTAYGRVRGVRRELNNEILGPVVQFLGVPYATPPLGARRFQPPEAPASWPGVRNATTLPPACPQNLHGALPAIMLPVWFTDNLEAAATYVQNQSEDCLYLNLYVPTEDDIRDSGKKPVMLFLHGGSYMEGTGNMFDGSVLAAYGNVIVVTLNYRLGVLGFLSTGDQAAKGNYGLLDQIQALRWLSENIAHFGGDPERITIFGSGAGASCVNLLILSHHSEGLFQKAIAQSGTAISSWSVNYQPLKYTRLLAAKVGCDREDSTEAVECLRRKSSRELVDQDVQPARYHIAFGPVVDGDVVPDDPEILMQQGEFLNYDMLIGVNQGEGLKFVEDSAESEDGVSASAFDFTVSNFVDNLYGYPEGKDVLRETIKFMYTDWADRDNGEMRRKTLLALFTDHQWVAPAVATAKLHADYQSPVYFYTFYHHCQAEGRPEWADAAHGDELPYVFGVPMVGATDLFPCNFSKNDVMLSAVVMTYWTNFAKTGDPNQPVPQDTKFIHTKPNRFEEVVWSKFNSKEKQYLHIGLKPRVRDNYRANKVAFWLELVPHLHNLHTELFTTTTRLPPYATRWPPRTPGPGTSGTRRPPPPATLPPESDIDLGPRAYDRFPGDSRDYSTELSVTVAVGASLLFLNILAFAALYYKRDRRQELRCRRLSPPGGSGSGVPGGGPLLPTAGRELPPEEELVSLQLKRGGGVGADPAEALRPACPPDYTLALRRAPDDVPLLAPGALTLLPSGLGPPPPPPPPSLHPFGPFPPPPPTATSHNNTLPHPHSTTRV
modifications: N-glycans
notes: Neuroligin 2, mouse, amplified from pNICE-NL2(−); lacks the splice insert at site A (missing G153-T169 in UniProt Q69ZK9); its own signal peptide was replaced with that of NL1 followed by an HA tag; PreScission site before the C-terminal EGFP; S1A; also called NL2 WT; wild-type NL2; source: HEK293T, BacMam virus, purified (GFP-nanobody resin, eluted by PPX digestion, SEC); not shown: EGFP, …
  stoichiometry N: 2
